Data from patent US20160129100A1 (UVIC INDUSTRY PARTNERSHIPS, published 2016).

T1: Plasminogen-depleted human fibrinogen (human, UniProt P02671 20-629; P02675 31-491; P02679 27-437)
T1 construct: Bought protein, immobilized at 0.5 µg per well
T1 sequence 1: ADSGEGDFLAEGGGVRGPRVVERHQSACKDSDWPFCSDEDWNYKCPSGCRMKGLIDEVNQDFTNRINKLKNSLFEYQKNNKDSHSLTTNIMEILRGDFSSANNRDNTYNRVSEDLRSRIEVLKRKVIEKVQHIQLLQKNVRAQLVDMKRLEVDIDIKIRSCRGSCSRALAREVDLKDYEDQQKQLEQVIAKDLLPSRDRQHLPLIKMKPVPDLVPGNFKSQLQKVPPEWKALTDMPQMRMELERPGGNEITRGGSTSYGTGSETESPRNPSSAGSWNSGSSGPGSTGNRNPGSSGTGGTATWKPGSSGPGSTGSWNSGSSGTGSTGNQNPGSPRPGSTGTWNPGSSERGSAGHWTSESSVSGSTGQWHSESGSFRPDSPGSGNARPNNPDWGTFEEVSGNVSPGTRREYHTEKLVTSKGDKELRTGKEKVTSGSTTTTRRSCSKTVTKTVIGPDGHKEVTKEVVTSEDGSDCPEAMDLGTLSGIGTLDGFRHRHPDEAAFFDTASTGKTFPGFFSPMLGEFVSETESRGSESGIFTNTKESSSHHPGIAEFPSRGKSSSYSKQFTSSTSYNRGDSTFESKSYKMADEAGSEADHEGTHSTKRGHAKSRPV
T1 sequence 2: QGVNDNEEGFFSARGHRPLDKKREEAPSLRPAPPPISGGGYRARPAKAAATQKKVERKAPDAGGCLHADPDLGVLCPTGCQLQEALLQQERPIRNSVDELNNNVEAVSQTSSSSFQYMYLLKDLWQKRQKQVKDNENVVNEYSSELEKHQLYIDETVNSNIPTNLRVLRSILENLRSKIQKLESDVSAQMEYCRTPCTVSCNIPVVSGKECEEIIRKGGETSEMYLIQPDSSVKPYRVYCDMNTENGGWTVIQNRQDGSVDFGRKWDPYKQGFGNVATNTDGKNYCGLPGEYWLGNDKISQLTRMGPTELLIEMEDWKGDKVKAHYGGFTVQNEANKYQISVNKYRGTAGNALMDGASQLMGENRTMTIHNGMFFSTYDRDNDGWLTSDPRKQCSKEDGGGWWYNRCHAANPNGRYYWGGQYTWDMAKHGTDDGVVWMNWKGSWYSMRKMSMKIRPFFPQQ
T1 sequence 3: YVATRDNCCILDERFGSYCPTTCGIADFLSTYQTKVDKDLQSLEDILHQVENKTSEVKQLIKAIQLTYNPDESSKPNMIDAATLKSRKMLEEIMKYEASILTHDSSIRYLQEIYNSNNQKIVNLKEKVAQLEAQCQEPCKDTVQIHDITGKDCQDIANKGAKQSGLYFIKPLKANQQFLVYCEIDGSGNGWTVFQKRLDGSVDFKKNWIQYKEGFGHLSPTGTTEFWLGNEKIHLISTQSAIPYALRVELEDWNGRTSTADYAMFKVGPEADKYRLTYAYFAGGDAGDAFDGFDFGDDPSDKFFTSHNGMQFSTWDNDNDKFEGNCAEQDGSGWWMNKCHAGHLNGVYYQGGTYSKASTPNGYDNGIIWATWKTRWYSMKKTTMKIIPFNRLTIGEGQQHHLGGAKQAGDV

B1: scrambled version of Tp0751 peptide 10 (p10scr) (peptide)
peptide: HHHHHHTSRVKLTISFERSLVNRTRTARFI
notes: Scrambled synthetic peptide; also called p10 scrambled peptide; scrambled version of peptide 10
B2: Tp0751 peptide p10 (peptide)
peptide: HHHHHHRKTVSFLTRNTAISSIRRRLEVTF
notes: One of 13 overlapping synthetic 24-mers spanning Tp0751 T46-P237; also called peptide 10
B3: scrambled version of Tp0751 peptide 6 (p6scr) (peptide)
peptide: HHHHHHTSNDWGQSLAILHEPQLGILQAGI
notes: Scrambled synthetic peptide
B4: Tp0751 peptide p3 (peptide)
peptide: HHHHHHTDPRSHGNAPPAPVGGAAQTHTQP
notes: One of 13 overlapping synthetic 24-mers spanning Tp0751 T46-P237; also called peptide 3
B5: Tp0751 peptide p8 (peptide)
peptide: HHHHHHFFDREHAEITFSRASVQEIFLVDS
notes: One of 13 overlapping synthetic 24-mers spanning Tp0751 T46-P237; also called negative control peptide
B6: scrambled version of Tp0751 peptide 4 (p4scr) (peptide)
peptide: HHHHHHMRLTPGWHTANQIRPQAQGVATAA
notes: Scrambled synthetic peptide
B7: Tp0751 peptide p5 (peptide)
peptide: HHHHHHAMRIALWNRATHGEQGALQHLLAG
notes: One of 13 overlapping synthetic 24-mers spanning Tp0751 T46-P237; also called peptide 5
B8: Tp0751 peptide p7 (peptide)
peptide: HHHHHHTEISPNSGDIHPLLFFDREHAEIT
notes: One of 13 overlapping synthetic 24-mers spanning Tp0751 T46-P237; also called peptide 7
B9: Tp0751 peptide p11 (peptide)
peptide: HHHHHHSIRRRLEVTFESHEVIHVRAVEDV
notes: also called peptide 11
B10: Tp0751 peptide p6 (peptide)
peptide: HHHHHHQGALQHLLAGLWIQTEISPNSGDI
notes: One of 13 overlapping synthetic 24-mers spanning Tp0751 T46-P237; also called peptide 6

Target: T1, Plasminogen-depleted human fibrinogen
Assay: 96-well plate binding assay, immobilized host protein, His-tagged peptide, A600

| Binder | binding result |
| --- | --- |
| B1 | binds |
| B2 | binds |

Target: T1, Plasminogen-depleted human fibrinogen
Assay: 96-well plate binding assay, immobilized host protein 0.5 µg/well, His-tagged peptide, A600

| Binder | binding result |
| --- | --- |
| B3 | no binding (tested: 2.0 µg per well) |
| B4 | no binding (tested: 2.0 µg per well) |
| B5 | no binding (tested: 2.0 µg per well) |
| B6 | no binding (tested: 2.0 µg per well) |
| B7 | no binding (tested: 2.0 µg per well) |
| B8 | no binding (tested: 2.0 µg per well) |

Target: T2, fibronectin isolated from human plasma (human, UniProt P02751 32-2296)
T2 construct: Bought protein, immobilized at 0.5 µg per well
T2 sequence (P02751 other isoform, or with tags, fused parts or gaps limits assumed): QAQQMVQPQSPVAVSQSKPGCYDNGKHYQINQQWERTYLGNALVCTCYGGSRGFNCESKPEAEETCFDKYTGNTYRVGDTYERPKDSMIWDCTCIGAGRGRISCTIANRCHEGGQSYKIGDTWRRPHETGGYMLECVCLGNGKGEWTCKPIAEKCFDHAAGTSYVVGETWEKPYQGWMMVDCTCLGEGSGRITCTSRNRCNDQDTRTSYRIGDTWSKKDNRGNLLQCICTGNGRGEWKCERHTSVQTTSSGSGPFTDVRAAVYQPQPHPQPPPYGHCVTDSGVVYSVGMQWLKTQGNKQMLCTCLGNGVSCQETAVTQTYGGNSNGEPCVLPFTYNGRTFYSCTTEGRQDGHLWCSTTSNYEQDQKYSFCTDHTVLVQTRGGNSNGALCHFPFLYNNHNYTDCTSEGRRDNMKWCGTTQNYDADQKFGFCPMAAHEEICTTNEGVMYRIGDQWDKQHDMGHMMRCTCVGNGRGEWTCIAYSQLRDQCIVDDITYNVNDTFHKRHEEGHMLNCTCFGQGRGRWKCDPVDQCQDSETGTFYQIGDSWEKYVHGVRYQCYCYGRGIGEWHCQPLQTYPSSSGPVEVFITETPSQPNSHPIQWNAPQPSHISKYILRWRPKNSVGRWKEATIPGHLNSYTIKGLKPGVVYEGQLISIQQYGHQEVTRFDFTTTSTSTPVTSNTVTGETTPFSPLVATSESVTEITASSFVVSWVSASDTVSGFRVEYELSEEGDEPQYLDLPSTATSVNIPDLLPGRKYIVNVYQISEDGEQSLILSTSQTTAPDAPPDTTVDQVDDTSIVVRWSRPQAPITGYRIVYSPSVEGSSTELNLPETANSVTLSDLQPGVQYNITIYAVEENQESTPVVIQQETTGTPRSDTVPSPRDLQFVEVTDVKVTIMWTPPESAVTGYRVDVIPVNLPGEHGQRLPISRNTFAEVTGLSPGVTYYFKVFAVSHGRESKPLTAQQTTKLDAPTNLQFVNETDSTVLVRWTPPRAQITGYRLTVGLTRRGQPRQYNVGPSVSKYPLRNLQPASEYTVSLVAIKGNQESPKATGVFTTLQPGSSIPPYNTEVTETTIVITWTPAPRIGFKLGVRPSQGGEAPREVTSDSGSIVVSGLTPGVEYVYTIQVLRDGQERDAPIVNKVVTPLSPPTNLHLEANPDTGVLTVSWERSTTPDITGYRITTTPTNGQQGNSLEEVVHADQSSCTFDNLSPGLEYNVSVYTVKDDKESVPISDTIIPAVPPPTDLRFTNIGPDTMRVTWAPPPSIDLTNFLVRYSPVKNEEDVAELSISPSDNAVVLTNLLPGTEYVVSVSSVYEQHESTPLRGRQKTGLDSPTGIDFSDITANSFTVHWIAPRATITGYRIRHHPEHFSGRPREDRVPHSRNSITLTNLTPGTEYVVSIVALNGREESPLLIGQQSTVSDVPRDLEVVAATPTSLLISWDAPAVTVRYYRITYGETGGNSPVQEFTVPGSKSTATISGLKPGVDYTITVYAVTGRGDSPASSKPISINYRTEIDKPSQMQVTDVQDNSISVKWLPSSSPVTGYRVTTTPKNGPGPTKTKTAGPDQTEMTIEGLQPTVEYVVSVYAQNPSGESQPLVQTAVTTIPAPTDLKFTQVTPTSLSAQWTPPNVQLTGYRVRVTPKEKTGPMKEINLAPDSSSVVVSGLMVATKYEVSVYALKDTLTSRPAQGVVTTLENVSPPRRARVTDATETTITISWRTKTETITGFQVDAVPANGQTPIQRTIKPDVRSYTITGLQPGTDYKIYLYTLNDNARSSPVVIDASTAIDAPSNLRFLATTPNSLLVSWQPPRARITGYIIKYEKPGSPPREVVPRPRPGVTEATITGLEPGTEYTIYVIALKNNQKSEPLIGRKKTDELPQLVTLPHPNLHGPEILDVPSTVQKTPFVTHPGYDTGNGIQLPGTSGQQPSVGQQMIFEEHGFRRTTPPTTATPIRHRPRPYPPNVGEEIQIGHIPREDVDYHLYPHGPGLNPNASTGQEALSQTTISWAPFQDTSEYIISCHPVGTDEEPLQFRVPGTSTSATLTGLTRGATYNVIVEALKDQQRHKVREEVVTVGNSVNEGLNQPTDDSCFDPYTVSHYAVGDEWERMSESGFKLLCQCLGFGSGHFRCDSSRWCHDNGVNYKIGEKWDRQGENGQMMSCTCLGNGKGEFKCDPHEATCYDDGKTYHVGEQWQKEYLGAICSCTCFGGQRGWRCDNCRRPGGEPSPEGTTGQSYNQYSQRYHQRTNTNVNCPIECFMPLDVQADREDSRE
Assay: as above

| Binder | binding result |
| --- | --- |
| B3 | no binding (tested: 2.0 µg per well) |
| B4 | no binding (tested: 2.0 µg per well) |
| B5 | no binding (tested: 2.0 µg per well) |
| B6 | no binding (tested: 2.0 µg per well) |
| B7 | no binding (tested: 2.0 µg per well) |
| B8 | no binding (tested: 2.0 µg per well) |

Target: T3, Human collagen type I (human, UniProt P02452 162-1218; P08123 80-1119)
T3 construct: Bought protein, immobilized at 0.5 µg per well; also called collagen I
T3 sequence (P02452 162-1218, chain 1 of 2): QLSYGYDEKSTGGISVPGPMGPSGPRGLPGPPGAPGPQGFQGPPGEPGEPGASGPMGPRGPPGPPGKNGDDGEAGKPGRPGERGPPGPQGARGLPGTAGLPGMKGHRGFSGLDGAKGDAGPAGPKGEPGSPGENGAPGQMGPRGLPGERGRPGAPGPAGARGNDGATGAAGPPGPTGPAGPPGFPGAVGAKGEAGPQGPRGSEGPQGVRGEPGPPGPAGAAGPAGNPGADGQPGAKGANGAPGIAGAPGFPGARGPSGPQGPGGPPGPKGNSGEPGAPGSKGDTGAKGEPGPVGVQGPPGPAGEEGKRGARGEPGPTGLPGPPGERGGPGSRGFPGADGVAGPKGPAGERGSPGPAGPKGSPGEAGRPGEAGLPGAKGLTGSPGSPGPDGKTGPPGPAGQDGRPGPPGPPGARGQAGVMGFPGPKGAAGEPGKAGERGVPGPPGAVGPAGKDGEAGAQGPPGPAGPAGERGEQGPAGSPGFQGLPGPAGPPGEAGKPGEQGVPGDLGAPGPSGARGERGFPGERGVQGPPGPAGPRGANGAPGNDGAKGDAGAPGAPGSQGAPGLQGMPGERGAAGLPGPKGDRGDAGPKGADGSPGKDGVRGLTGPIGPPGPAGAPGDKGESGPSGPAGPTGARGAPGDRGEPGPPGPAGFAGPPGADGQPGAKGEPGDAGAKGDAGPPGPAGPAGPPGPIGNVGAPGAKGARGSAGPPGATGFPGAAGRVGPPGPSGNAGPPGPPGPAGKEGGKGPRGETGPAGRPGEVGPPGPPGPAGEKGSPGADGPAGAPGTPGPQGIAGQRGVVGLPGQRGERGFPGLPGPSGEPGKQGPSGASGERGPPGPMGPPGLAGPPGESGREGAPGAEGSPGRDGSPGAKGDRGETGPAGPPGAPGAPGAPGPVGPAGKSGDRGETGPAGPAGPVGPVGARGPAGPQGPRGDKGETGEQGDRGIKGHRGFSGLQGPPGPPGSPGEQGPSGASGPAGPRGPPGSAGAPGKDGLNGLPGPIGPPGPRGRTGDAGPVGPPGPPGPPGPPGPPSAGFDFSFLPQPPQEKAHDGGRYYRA
T3 sequence (P08123 80-1119, chain 2 of 2): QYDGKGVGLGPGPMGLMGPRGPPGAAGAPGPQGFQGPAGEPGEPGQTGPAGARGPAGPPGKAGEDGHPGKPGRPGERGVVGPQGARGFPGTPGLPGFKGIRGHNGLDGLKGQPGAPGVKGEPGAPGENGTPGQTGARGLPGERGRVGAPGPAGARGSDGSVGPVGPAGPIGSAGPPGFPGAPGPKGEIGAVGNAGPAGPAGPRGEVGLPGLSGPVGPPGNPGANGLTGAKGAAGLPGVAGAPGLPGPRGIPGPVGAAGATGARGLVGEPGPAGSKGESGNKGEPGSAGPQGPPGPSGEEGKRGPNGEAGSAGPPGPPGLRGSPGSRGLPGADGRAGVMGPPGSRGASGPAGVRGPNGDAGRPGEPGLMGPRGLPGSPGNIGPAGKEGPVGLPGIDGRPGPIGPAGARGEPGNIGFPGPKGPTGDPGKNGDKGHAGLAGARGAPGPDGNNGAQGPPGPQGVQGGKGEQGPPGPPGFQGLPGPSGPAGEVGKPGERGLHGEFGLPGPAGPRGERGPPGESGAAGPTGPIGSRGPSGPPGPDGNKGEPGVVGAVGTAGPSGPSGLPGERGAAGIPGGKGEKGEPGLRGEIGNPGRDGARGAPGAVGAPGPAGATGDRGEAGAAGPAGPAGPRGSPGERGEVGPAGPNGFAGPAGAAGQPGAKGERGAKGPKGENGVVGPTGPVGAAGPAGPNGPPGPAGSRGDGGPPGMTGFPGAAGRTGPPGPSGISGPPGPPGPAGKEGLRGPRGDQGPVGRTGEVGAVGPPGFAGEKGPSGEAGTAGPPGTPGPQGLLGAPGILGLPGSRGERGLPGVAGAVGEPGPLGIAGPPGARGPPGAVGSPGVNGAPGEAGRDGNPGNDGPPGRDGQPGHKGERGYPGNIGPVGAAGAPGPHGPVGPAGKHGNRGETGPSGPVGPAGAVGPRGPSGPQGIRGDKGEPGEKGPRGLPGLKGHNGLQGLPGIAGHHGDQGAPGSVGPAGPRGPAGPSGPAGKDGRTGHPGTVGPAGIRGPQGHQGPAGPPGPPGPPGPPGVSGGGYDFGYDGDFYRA
Assay: as above

| Binder | binding result |
| --- | --- |
| B3 | no binding (tested: 2.0 µg per well) |
| B4 | no binding (tested: 2.0 µg per well) |
| B5 | no binding (tested: 2.0 µg per well) |
| B6 | no binding (tested: 2.0 µg per well) |
| B7 | no binding (tested: 2.0 µg per well) |
| B8 | no binding (tested: 2.0 µg per well) |

Target: T1, Plasminogen-depleted human fibrinogen
Assay: 96-well plate binding assay, immobilized host protein 0.5 µg/well, peptide 2.0 µg/well, A600

| Binder | binding result |
| --- | --- |
| B9 | binds |
| B10 | binds |
